In the assay the target is recombinant human IFNγ (human) (UniProt P01579). Put plainly: cell-based or functional assay.
Sequence of recombinant human IFNγ (human) (P01579 24-166 limits assumed): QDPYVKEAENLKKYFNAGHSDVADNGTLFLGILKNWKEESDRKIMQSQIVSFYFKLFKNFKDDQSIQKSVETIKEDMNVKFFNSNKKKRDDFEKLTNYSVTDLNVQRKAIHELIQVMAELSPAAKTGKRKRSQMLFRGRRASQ

Take “R&D Systems mouse anti-human IFNγ antibody MAB285”: the MHC II Inhibition Cell-Based Assay IC50 turned out to be 0.4 nM.

The values above are taken from patent publication US20100158922A1.
